Experimental data as given in publication PMC4650826.
Several values for one entry are separate records, joined by “and”; a condition that tells them apart may be missing. Equal entries are not always repeated.

How the values were obtained:
[1] = target: Hcp1 (hemolysin-coregulated protein 1) of Burkholderia pseudomallei, recombinant wildtype (B. pseudomallei); test: dynamic light scattering; 8 mg/mL; apparent molecular weight in solution
[2] = target: Hcp1 (hemolysin-coregulated protein 1) of Burkholderia pseudomallei, recombinant wildtype (B. pseudomallei); test: AUC

For “Hcp1 (hemolysin-coregulated protein 1) of Burkholderia pseudomallei, recombinant wildtype (natural protein)”, the stoichiometry N [1] was 12 and the stoichiometry N [2] was 6 and 12.
